In the Human Domainome abundance scans (Beltran et al. 2025):

B1: Ankyrin-3, residues 4094 to 4171; numbered along this chain, Q12955 (parent)
chain: MAIVADHLGLSWTELARELNFSVDEINQIRVENPNSLISQSFMLLKKWVTRDGKNATTDALTSVLTKINRIDIVTLLE
B2: 3'-5' exoribonuclease 1, residues 65 to 114; numbered along this chain, Q8IV48 (parent)
chain: VYKEIAITNGCINRMSKEELRAKLSEFKLETRGVKDVLKKRLKNYYKKQK

Variants of: B1
Experiment: abundance fitness (aPCA) (normalised: wild type 0, dead -1); higher = more abundant; growth selection in yeast, the domain comes from the species named
Conditions: Homo sapiens

Abundance fitness: each site, then its substitutions
L77: R -0.93, V -0.139, Q -0.805, C -0.164, T -0.434, S -0.526, W -0.518, K -0.602, P -0.768, I -0.293, H -0.742, M -0.022, G -0.68
E78: V -0.206, L -0.326, H -0.026, M -0.211, W -0.649, N -0.014, C -0.275, Y -0.159, K -0.025, D -0.001, S -0.089, I -0.219, G 0.077, Q -0.397, F -0.13, T -0.063
L76: I 0.434, Y -0.546, N -0.292, H -0.064, W -0.489, G -0.457, R 0.045, M 0.067, P -0.438, T -0.197, F -0.231, V 0.026, S -0.175, Q 0.028

Variants of: B2
Experiment: as above
Conditions: Homo sapiens

Abundance fitness, by site and new letter:
R14: P -0.908, C -0.315, H -0.166, W -0.941, M -0.298, A -0.115, Q -0.072, N -0.151, Y -0.826, L -0.43, T -0.226, S -0.129, D -0.308, E -0.359, I -0.724, V -0.65, F -0.881, G -0.15
T8: M -0.161, F -0.472, C -0.29, L -0.388, P -0.069, W -0.513, H -0.268, R -0.174, D -0.274, G -0.215, E -0.24, K -0.07, Q -0.199, Y -0.49, S -0.019
N13: V -0.764, L -0.914, K -0.376, T -0.684, D -0.259, Q -0.629, R -0.415, M -0.801, A -0.487, E -0.446, F -0.961, S -0.272, W -0.938, Y -0.437, P -0.949, I -0.65
K17: R -0.203, I -0.329, W -0.871, E -0.518, D -0.759, L -0.592, A -0.209, G -0.603, Y -0.651, Q -0.664, S -0.34, C -0.113, V -0.152, N -0.378, H -0.591, F -0.646, T -0.366
S16: A -0.445, D -0.336, N -0.041, W -1.19, L -0.838, T -0.01, I -0.828, V -0.753, G -0.425, R -0.097, P -0.264, Q -0.54, M -1.08, K -0.026, F -0.701, E -0.746, Y -0.461
I7: W -0.287, K -0.131, V -0.091, L 0.019, Y -0.14, D -0.171, C -0.164, P -0.067, S -0.142, M -0.016, N -0.17, G -0.13, R -0.178, H -0.166, Q -0.141, F -0.198, A -0.097, T -0.1, E -0.175
G10: I -0.34, W -0.401, S -0.146, L -0.37, R -0.248, H -0.18, Y -0.238, T -0.121, Q -0.125, F -0.323, C -0.23, K -0.112, A -0.118, P -0.248, E -0.155, N -0.147
E4: K -0.251, N -0.057, W -0.229, S -0.077, C -0.161, D 0.003, F -0.214, M -0.144, G -0.093, Y -0.164, Q -0.085, A -0.113, H -0.173, I -0.287, P -0.107, T -0.06, L -0.334, R -0.353
M15: G -0.975, Y -0.645, C -0.826, H -0.873, K -0.326, Q -0.885, P -1, D -0.981, W -0.83, I -0.635, R -0.718, F -0.544, T -0.414, E -1.05, A -0.678, N -0.789, L -0.317
K3: G -0.05, N 0.058, D -0.192, A -0.089, H -0.055, F -0.34, C -0.145, Q -0.035, S -0.06, E 0.012, Y -0.251, V -0.294, I -0.336, R -0.131, M -0.287, L -0.331, W -0.509, T -0.081
I5: M 0.052, A 0.007, K -0.042, T 0.066, W -0.225, R -0.101, P -0.003, F -0.065, D 0.026, Q 0.041, H -0.006, V -0.037, L -0.051, N -0.004, S -0.004, Y -0.029, G 0.025, E -0.044
A6: S -0.075, F -0.078, C -0.172, H 0.022, V 0.011, G -0.084, Y -0.008, D -0.183, M -0.096, N -0.003, Q -0.179, E -0.092, P 0.007, W -0.261, L -0.082, I 0.019
I12: T -0.457, E -0.818, V -0.152, W -0.435, K -0.741, G -0.877, D -0.961, Y -0.699, R -0.738, F -0.693, A -0.873, C -0.721, S -0.769, Q -0.899, P -0.716, L -0.389
Y2: N 0.067, Q 0.076, E 0.048, C 0.013, M 0.012, D 0.1, A 0.006, K 0.041, V 0.021, R -0.072, I 0.004, W -0.069, F -0.053, P 0.046, H 0.01, S 0.028, G 0.069, L -0.052
E18: A 0.079, C 0.072, D -0.034
V1: F -0.104, T -0.122, G 0.002, Y -0.083, M -0.065, R -0.37, C -0.072, W -0.102, Q -0.369, L -0.047, S -0.038, K -0.043, D -0.078, N 0.093, I -0.025
C11: S 0.012, Q 0.046, L -0.053, W -0.147, I 0.007, E 0.071, V 0.01, G -0.058, R -0.074, K -0.039, N -0.04, T 0.005, H -0.048, Y -0.052, A 0.046, D 0.067, M 0.057, F -0.104, P -0.278
N9: P 0.015, F -0.091, C -0.047, K 0.066, Q -0.174, A -0.033, L -0.127, W -0.331, M 0.036, D -0.244, E -0.241, T -0.12, V -0.092, H -0.066, S -0.067
